Experimental data published in patent US20220098290A1 (JUNTENDO EDUCATIONAL FOUNDATION, published 2022).
Positions count from the first letter of the chain named.

B1: clone B3 antibody (antibody, V domains shown)
VH: QVQLQQSGAELVKPGSSVKISCKASGYTFTRNFIHWIKQQPGNGLEWIGWIFPGDGDTEYNQKFNGKATLTADKSSSTAYMQLSSLTSEDSAVYFCARGNYNYEYFDYWGQGVMVTVSS
VL: DIQMTQSPASLSASLGETVSIECLASEDIYSYLAWYQQKPGKSPQLLIFAANRLQDGVPSRFSGSGSGTQFSLKISGMQPEDEGDYFCLQGSKFPYTFGPGTKLELN
notes: Rat monoclonal antibody purified from a hybridoma (WKY/Izm rat x mouse SP2 myeloma), detected with anti-rat IgG; also called rat clone B3 antibody
B2: clone C6 antibody (antibody, V domains shown)
VH: QVQLQQSGAELVKPGSSVKISCKASGYTFTSYFVHWIKQQPGDGLEWIGWIYPGDGDTEYNHKFNGKSTLTADRSSSTAYMQLSSLTSEDSAVYFCARGNYYDGREVMDAWGQGASVTVSS
VL: DVVLTQTPPTLSATIGQSVSISCRSSQSLLDSDGETYLNWLLQRPGQSPQLLIYSVSNLESGVPNRFSGSGSETDFTLKISGMEAEDLGVYYCMQATHGPYTFGAGTKLELK
notes: Rat monoclonal antibody purified from a hybridoma, detected with anti-rat IgG; also called rat clone C6 antibody
B3: clone G1 antibody (antibody, V domains shown)
VH: B2 VH with H62Q, S68A
VL: B2 VL with S48C, M83V, A96G
notes: Rat monoclonal antibody purified from a hybridoma, detected with anti-rat IgG; also called rat clone G1 antibody

What was measured:
[1] = target: T1, peptide having cysteine at the amino-terminal of the amino acid sequence (RRMMRTKMR) included in SEQ ID NO: 1; assay: SPR
T1 peptide: CRRMMRTKMR

[2] = target: T2, Del 52 type mutant CALR protein (full-length) (human, UniProt P27797 18-417); assay: immunoblotting and ELISA on Del 52 and its alanine mutants
T2 construct: mature; also called 52-nucleotide deletion type; CALR Del 52
T2 sequence (looked up): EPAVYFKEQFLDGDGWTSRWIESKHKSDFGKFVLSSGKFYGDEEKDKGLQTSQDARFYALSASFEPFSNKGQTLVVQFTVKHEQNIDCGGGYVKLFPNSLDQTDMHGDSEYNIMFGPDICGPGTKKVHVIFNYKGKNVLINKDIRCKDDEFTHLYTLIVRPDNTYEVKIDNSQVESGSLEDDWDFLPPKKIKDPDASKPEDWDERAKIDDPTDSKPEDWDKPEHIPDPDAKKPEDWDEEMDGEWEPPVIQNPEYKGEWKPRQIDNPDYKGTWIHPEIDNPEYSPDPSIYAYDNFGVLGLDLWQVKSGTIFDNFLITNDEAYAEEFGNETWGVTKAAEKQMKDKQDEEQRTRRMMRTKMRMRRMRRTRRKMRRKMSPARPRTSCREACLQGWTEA
Method: It was verified that clone B3, C6, and G1 antibodies recognize the amino acid sequence used as an antigen on the mutant CALR protein. The reactivities of the respective antibodies against mutant CALR proteins each having alanine substituted for one amino acid at each position of the amino acids used as the antigen and the amino acids around it were evaluated by immunoblotting (FIG. 13A) and ELISA (FIG. 13B).
The Del 52 type mutant CALR proteins each having alanine (A) substituted for one amino acid at each position of the amino acids in the region from the 367th threonine (T) to the 378th arginine (R) or the protein not having substitution were expressed in HEK 293T cells, and culture supernatants containing secreted mutant CALR proteins were prepared by centrifugation (1,600 g×5 min, 4° C.). The resulting protein solutions were each heat-treated in the presence of SDS and a reducing agent, then developed on a gel by SDS polyacrylamide electrophoresis, electrically transferred on a PVDF membrane, and reacted with a TBS-T solution containing 5% skimmed milk at room temperature for 1 hour, followed by reaction with a 5% BSA/TBS-T solution containing a peroxidase-labeled clone B3, C6, or G1 antibody or a mouse anti-CALR antibody (Abcam plc., Cat #ab22683) at 4° C. overnight. The PVDF membrane reacted with the mouse anti-CALR antibody was washed with a TBS-T solution and was then reacted with a 5% skimmed milk/TBS-T solution containing a peroxidase-labeled anti-mouse IgG antibody (Jackson Immuno Research Inc., Cat #115-035-003) at room temperature for 1 hour. Subsequently, all of the PVDF membranes were washed with a TBS-T solution and were then reacted with a peroxidase luminescence reagent (Thermo Fisher Scientific K.K., Cat #34094). The resulting signals were detected using a FUSION image pickup apparatus (manufactured by Vilber-Lourmat S.A.).

[3] = target: T3, peptide having cysteine at the amino-terminal of the amino acid sequence (RRMMRTKMR) included in SEQ ID NO: 1; assay: SPR (Biacore T200), clone B3 antibody immobilised, peptide at 1.25-20 nM
T3 construct: Synthetic peptide, analyte in SPR; also called antigen used for production of the antibody
T3 peptide: CRRMMRTKMR
Method: Sensor chips (GE Healthcare, Cat #BR100530) for surface plasmon resonance analysis were loaded on a surface plasmon resonance analyzer Biacore T200 (GE Healthcare) and were equilibrated with an HBS-EP buffer (GE Healthcare, Cat #BR100669). Clone B3 antibody adjusted to a concentration of 10 μg/mL with Acetate 5.5 (GE Healthcare, Cat #BR100352) was immobilized using an Amine coupling kit (GE Healthcare, Cat #BR100050) at an immobilized amount of 200 RU. Subsequently, surface plasmon resonance was measured using a peptide having cysteine at the amino-terminal of the amino acid sequence ([…]) included in SEQ ID NO: 1 adjusted to concentrations of 20, 10, 5, 2.5, and 1.25 nM with an HBS-EP buffer, and the dissociation constant was acquired with Biacore T200 Evaluation Software.

Row | Binder | Kd [1] | binding result [2] | binding result [3]
1 | B1 | 0.855 nM | binds | binds
2 | B2 | – | binds | –
3 | B3 | – | binds | –
